Series [1] deals with HeLa Kyoto. Kind of series: thermal stability score vs G1/S (z-score of summed log2 fold changes over temperatures); higher = more thermally stable than in G1/S.
The test system of series [2] is HeLa Kyoto. Kind of series: melting temperature (median over replicates), in situ; higher = more thermally stable.
The test system of series [3] is HeLa Kyoto. Kind of series: solubility change mitosis vs G1/S (difference of NP-40 vs SDS log2 ratios) (log2 ratio difference); higher = more soluble in mitosis.
Series [4] relates to HeLa Kyoto. Kind of series: solubility in G1/S (NP-40 vs SDS abundance) (log2 ratio); higher = more soluble. Conditions: cell cycle stage: G1/S.
[5] abbreviates: cell cycle stage: early G1 (4.5 h after nocodazole release).

This note sets out measurements from the supplement of paper PMC5998384.
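Wherever melting temperature (median over replicates), in situ is given: HeLa Kyoto cells synchronized by double thymidine or nocodazole block, proteins quantified by TMT10plex mass spectrometry, three independent biological replicates.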
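Wherever solubility change mitosis vs G1/S (difference of NP-40 vs SDS log2 ratios) is given: synchronized HeLa Kyoto cells (double thymidine block for G1/S, nocodazole release for mitosis), protein amounts in NP-40 versus SDS lysates quantified by mass spectrometry, three biological replicates.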
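Wherever solubility in G1/S (NP-40 vs SDS abundance) is given: HeLa Kyoto cells arrested at G1/S by double thymidine block, proteins quantified by TMT10plex mass spectrometry in mild NP-40 versus SDS extracts, three biological replicates.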
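Wherever thermal stability score vs G1/S (z-score of summed log2 fold changes over temperatures) is given: synchronized HeLa Kyoto cells, proteins quantified by TMT10plex mass spectrometry, three biological replicates, mitosis taken 0.5 h after nocodazole release, G1/S directly after double thymidine block.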

On to “MEGDAVEAIVEESETFIKGKERKTYQRRREGGQEEDACHLPQNQTDGGEVVQDVNSSVQMVMMEQLDPTLLQMKTEVMEGTVAPEAEAAVDDTQIITLQVVNMEEQPINIGELQLVQVPVPVTVPVATTSVEELQGAYENEVSKEGLAESEPMICHTLPLPEGFQVVKVGANGEVETLEQGELPPQEDPSWQKDPDYQPPAKKTKKTKKSKLRYTEEGKDVDVSVYDFEEEQQEGLLSEVNAEKVVGNMKPPKPTKIKKKGVKKTFQCELCSYTCPRRSNLDRHMKSHTDERPHKCHLCGRAFRTVTLLRNHLNTHTGTRPHKCPDCDMAFVTSGELVRHRRYKHTHEKPFKCSMCDYASVEVSKLKRHIRSHTGERPFQCSLCSYASRDTYKLKRHMRTHSGEKPYECYICHARFTQSGTMKMHILQKHTENVAKFHCPHCDTVIARKSDLGVHLRKQHSYIEQGKKCRYCDAVFHERYALIQHQKSHKNEKRFKCDQCDYACRQERHMIMHKRTHTGEKPYACSHCDKTFRQKQLLDMHFKRYHDPNFVPAAFVCSKCGKTFTRRNTMARHADNCAGPDGVEGENGGETKKSKRGRKRKMRSKKEDSSDSENAEPDLDDNEDEEEPAVEIEPEPEPQPVTPAPPPAKKRRGRPPGRTNQPKQNQPTAIIQVEDQNTGAIENIIVEVKKEPDAEPAEGEEEEAQPAATDAPNGDLTPEMILSMMDR [CTCF]”, for which the values for the thermal stability score in series [1] (setting [5]) and in series [1] (cell cycle stage: mitosis) were -1.57 and -1.93, respectively. In addition, the melting temperature in series [2] (cell cycle stage: G1/S) was 55.5 °C; in series [2] (cell cycle stage: mitosis), 54.4 °C. In addition, the “solubility change mitosis (log2)” value in series [3] was determined as 0.0343. The “solubility in G1/S (log2)” value in series [4] is -0.451.

For “MMGRSPGFAMQHIVGVPHVLVRRGLLGRDLFMTRTLCSPGPSQPGEKRPEEVALGLHHRLPALGRALGHSIQQRATSTAKTWWDRYEEFVGLNEVREAQGKVTEAEKVFMVARGLVREAREDLEVHQAKLKEVRDRLDRVSREDSQYLELATLEHRMLQEEKRLRTAYLRAEDSEREKFSLFSAAVRESHEKERTRAERTKNWSLIGSVLGALIGVAGSTYVNRVRLQELKALLLEAQKGPVSLQEAIREQASSYSRQQRDLHNLMVDLRGLVHAAGPGQDSGSQAGSPPTRDRDVDVLSAALKEQLSHSRQVHSCLEGLREQLDGLEKTCSQMAGVVQLVKSAAHPGLVEPADGAMPSFLLEQGSMILALSDTEQRLEAQVNRNTIYSTLVTCVTFVATLPVLYMLFKAS [CCDC51]”, the thermal stability score turned out to be 0.333 in series [1] (setting [5]) and 0.178 in series [1] (cell cycle stage: mitosis). Further, the melting temperature in series [2] (cell cycle stage: G1/S) was 53.5 °C; in series [2] (cell cycle stage: mitosis), 52.7 °C. Also, the “solubility change mitosis (log2)” value in series [3] is -0.0792. In series [4], the “solubility in G1/S (log2)” value came to 0.273.

Regarding “MTTDEGAKNNEESPTATVAEQGEDITSKKDRGVLKIVKRVGNGEETPMIGDKVYVHYKGKLSNGKKFDSSHDRNEPFVFSLGKGQVIKAWDIGVATMKKGEICHLLCKPEYAYGSAGSLPKIPSNATLFFEIELLDFKGEDLFEDGGIIRRTKRKGEGYSNPNEGATVEIHLEGRCGGRMFDCRDVAFTVGEGEDHDIPIGIDKALEKMQREEQCILYLGPRYGFGEAGKPKFGIEPNAELIYEVTLKSFEKAKESWEMDTKEKLEQAAIVKEKGTVYFKGGKYMQAVIQYGKIVSWLEMEYGLSEKESKASESFLLAAFLNLAMCYLKLREYTKAVECCDKALGLDSANEKGLYRRGEAQLLMNEFESAKGDFEKVLEVNPQNKAARLQISMCQKKAKEHNERDRRIYANMFKKFAEQDAKEEANKAMGKKTSEGVTNEKGTDSQAMEEEKPEGHV [FKBP5]”, the thermal stability score in series [1] (setting [5]) is 2.48; in series [1] (cell cycle stage: mitosis), 4.23. The melting temperature in series [2] (cell cycle stage: G1/S) came out at 46.7 °C; in series [2] (cell cycle stage: mitosis) it was 48.6 °C. Further, the “solubility change mitosis (log2)” value in series [3] is -0.124. For the same sequence, the “solubility in G1/S (log2)” value in series [4] worked out at 0.0823.

For the sequence “MATAALLRGATPGRGGPVWRWRLRAAPRCRLAHSSCSPGGDPTAGAAWACFRLDGRTLLRVRGPDAAPFLLGLLTNELPLPSPAAAGAPPAARAGYAHFLNVQGRTLYDVILYGLQEHSEVSGFLLECDSSVQGALQKHLALYRIRRKVTVEPHPELRVWAVLPSSPEACGAASLQERAGAAAILIRDPRTARMGWRLLTQDEGPALVPGGRLGDLWDYHQHRYLQGVPEGVRDLPPGVALPLESNLAFMNGVSFTKGCYIGQELTARTHHMGVIRKRLFPVRFLDPLPTSGITPGATVLTASGQTVGKFRAGQGNVGLALLWSEKIKGPLHIRASEGAQVALAASVPDWWPTVSK [IBA57]”, the thermal stability score in series [1] (setting [5]) is 0.0549; in series [1] (cell cycle stage: mitosis) it was -0.552. In addition, the melting temperature in series [2] (cell cycle stage: G1/S) was 52.8 °C; in series [2] (cell cycle stage: mitosis), 52.4 °C. The “solubility change mitosis (log2)” value in series [3] worked out at 0.132. Besides, in series [4], the “solubility in G1/S (log2)” value was -0.246.

Take “MLETLRERLLSVQQDFTSGLKTLSDKSREAKVKSKPRTVPFLPKYSAGLELLSRYEDTWAALHRRAKDCASAGELVDSEVVMLSAHWEKKKTSLVELQEQLQQLPALIADLESMTANLTHLEASFEEVENNLLHLEDLCGQCELERCKHMQSQQLENYKKNKRKELETFKAELDAEHAQKVLEMEHTQQMKLKERQKFFEEAFQQDMEQYLSTGYLQIAERREPIGSMSSMEVNVDMLEQMDLMDISDQEALDVFLNSGGEENTVLSPALGPESSTCQNEITLQVPNPSELRAKPPSSSSTCTDSATRDISEGGESPVVQSDEEEVQVDTALATSHTDREATPDGGEDSDS [DTNBP1]”: the thermal stability score in series [1] (setting [5]) was -0.457; in series [1] (cell cycle stage: mitosis), -0.463. In addition, in series [2] (cell cycle stage: G1/S), the melting temperature is 54.1 °C. Moreover, the “solubility change mitosis (log2)” value in series [3] is -0.387. For the same sequence, in series [4], the “solubility in G1/S (log2)” value was determined as 0.267.

As to “MPSKFSCRQLREAGQCFESFLVVRGLDMETDRERLRTIYNRDFKISFGTPAPGFSSMLYGMKIANLAYVTKTRVRFFRLDRWADVRFPEKRRMKLGSDISKHHKSLLAKIFYDRAEYLHGKHGVDVEVQGPHEARDGQLLIRLDLNRKEVLTLRLRNGGTQSVTLTHLFPLCRTPQFAFYNEDQELPCPLGPGECYELHVHCKTSFVGYFPATVLWELLGPGESGSEGAGTFYIARFLAAVAHSPLAAQLKPMTPFKRTRITGNPVVTNRIEEGERPDRAKGYDLELSMALGTYYPPPRLRQLLPMLLQGTSIFTAPKEIAEIKAQLETALKWRNYEVKLRLLLHLEELQMEHDIRHYDLESVPMTWDPVDQNPRLLTLEVPGVTESRPSVLRGDHLFALLSSETHQEDPITYKGFVHKVELDRVKLSFSMSLLSRFVDGLTFKVNFTFNRQPLRVQHRALELTGRWLLWPMLFPVAPRDVPLLPSDVKLKLYDRSLESNPEQLQAMRHIVTGTTRPAPYIIFGPPGTGKTVTLVEAIKQVVKHLPKAHILACAPSNSGADLLCQRLRVHLPSSIYRLLAPSRDIRMVPEDIKPCCNWDAKKGEYVFPAKKKLQEYRVLITTLITAGRLVSAQFPIDHFTHIFIDEAGHCMEPESLVAIAGLMEVKETGDPGGQLVLAGDPRQLGPVLRSPLTQKHGLGYSLLERLLTYNSLYKKGPDGYDPQFITKLLRNYRSHPTILDIPNQLYYEGELQACADVVDRERFCRWAGLPRQGFPIIFHGVMGKDEREGNSPSFFNPEEAATVTSYLKLLLAPSSKKGKARLSPRSVGVISPYRKQVEKIRYCITKLDRELRGLDDIKDLKVGSVEEFQGQERSVILISTVRSSQSFVQLDLDFNLGFLKNPKRFNVAVTRAKALLIIVGNPLLLGHDPDWKVFLEFCKENGGYTGCPFPAKLDLQQGQNLLQGLSKLSPSTSGPHSHDYLPQEREGEGGLSLQVEPEWRNEL [MOV10]”, the thermal stability score in series [1] (setting [5]) is -0.801; in series [1] (cell cycle stage: mitosis) it was -2.06. The melting temperature in series [2] (cell cycle stage: G1/S) was found to be 52.9 °C; in series [2] (cell cycle stage: mitosis), 51.1 °C. Also, the “solubility change mitosis (log2)” value in series [3] was -0.141. Further, the “solubility in G1/S (log2)” value in series [4] is -0.355.
